Laboratory results: patent US20160376363A1 (ALDER BIOPHARMACEUTICALS, published 2016)

How the values were obtained:
human PACAP38 = target: T1, human PACAP38 (human, C-terminal lysine is amidated; N-terminally or C-terminally biotinylated in the HTRF and cell binding assays); assay: SPR (ProteOn XPR36), antibody amine-coupled to chip, peptide as analyte, 1:1 Langmuir fit
T1 construct: Synthetic peptide (American Peptide; biotinylated forms from AnaSpec); also called PACAP 1-38; wild-type PACAP peptide (1-38)
T1 peptide: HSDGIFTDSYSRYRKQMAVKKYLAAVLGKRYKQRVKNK

human PACAP27 = target: T2, human PACAP27 (human, C-terminal leucine is amidated; 125I-labelled in Example 10); assay: as above
T2 construct: also called 125I-labelled PACAP27
T2 peptide: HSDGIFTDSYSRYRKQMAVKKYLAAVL

B1: Ab21 (antibody, V domains shown)
VH: QSVEESGGRLVTPGTPLTLTCTVSGIDLSSYYMTWVRQAPGKGLEWVGFIDAGGSAYYATWAKGRFTISKASTTVDLKITSPTTEDTATYFCARDLDLWGPGTLVTVSS
VL: AAVLTQTPSPVSAAVGGTVSISCKSSESVYGDYLAWFQQKPGQPPKQLIYDASTLASGVPSRFKGSGSGTQFTLTISGVQCDDAATYYCAGGYVSAGVAFGGGTEVVVKR
Binder B1 has a Kd (human PACAP38) of 0.027 nM, a koff (human PACAP38) of 1e-05 s⁻¹ and a Kd (human PACAP27) of 0.013 nM. For the same binder, the koff (human PACAP27) was 1e-05 s⁻¹.
